Residue numbers refer to the chain shown, from its start.

Test in all cases: SPR, antibody captured, C2 as analyte;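 further: biacore at 37 °C, anti-C2 mAbs held by immobilised goat anti-human IgG, C2 alanine or serine mutants injected, double-referenced sensorgrams fitted to a 1:1 kinetic or steady-state model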
In general terms: SPR reads the build-up and loss of mass on a sensor chip optically.

The target in one assay is T1, human C2 K274A (human, UniProt P06681 21-752).
T1 sequence: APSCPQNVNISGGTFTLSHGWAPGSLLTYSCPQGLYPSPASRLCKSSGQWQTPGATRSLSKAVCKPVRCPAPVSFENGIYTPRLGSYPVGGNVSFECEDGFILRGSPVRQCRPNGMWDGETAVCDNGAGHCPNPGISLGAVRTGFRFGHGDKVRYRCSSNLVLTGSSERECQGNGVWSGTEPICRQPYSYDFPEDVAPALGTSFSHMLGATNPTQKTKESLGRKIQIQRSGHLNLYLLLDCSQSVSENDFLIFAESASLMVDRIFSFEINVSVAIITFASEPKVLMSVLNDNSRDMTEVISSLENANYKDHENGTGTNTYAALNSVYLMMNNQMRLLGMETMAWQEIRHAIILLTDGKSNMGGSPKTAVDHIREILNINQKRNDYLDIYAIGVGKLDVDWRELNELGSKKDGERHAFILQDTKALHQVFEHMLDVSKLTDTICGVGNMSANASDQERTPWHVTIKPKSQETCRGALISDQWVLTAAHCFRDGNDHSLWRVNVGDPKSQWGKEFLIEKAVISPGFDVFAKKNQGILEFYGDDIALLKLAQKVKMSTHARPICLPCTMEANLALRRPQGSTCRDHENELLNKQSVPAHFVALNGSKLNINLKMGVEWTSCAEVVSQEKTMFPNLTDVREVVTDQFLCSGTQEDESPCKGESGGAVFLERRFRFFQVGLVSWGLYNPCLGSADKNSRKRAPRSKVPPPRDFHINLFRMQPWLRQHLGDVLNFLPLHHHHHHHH

The target of a further assay is T2, human C2 Y328A (human, UniProt P06681 21-752).
T2 sequence: T1 sequence with A254K, Y308A

A further assay concerns the target T3, human C2 K443A (human, UniProt P06681 21-752).
T3 sequence: T1 sequence with A254K, K423A

For the next assay, the target named is T4, human C2 E450A (human, UniProt P06681 21-752).
T4 sequence: T1 sequence with A254K, E430A

B1: RF16-242 (antibody, human IgG4 S228P, lambda, V domains shown)
VH: EVQLLQSGAEVKKPGESLKISCKGSGYSFTSYWIGWVRQMPGKGLEWMGIIYPGDSDTRYSPSFQGQVTISADKSISTAYLQWSSLKASDTAMYYCARRGHYGDYFDYWGQGTLVTVSS
VL: SYELTQPPSVSVSPGQTARITCSGDALPKKYAYWYHQKSGQAPVLVIYEDRRRPSEIPERFSGSSSGTMATLTITGAQVEDEGVYFCYSRDRAGNQRVFGGGTQLTVLG
notes: pH-dependent anti-C2 antibody from a phage display library
What is called Kd is the equilibrium constant for the complex coming apart. In the case of B1, the Kd with human C2 K274A is 86.9 nM; with human C2 Y328A, 45.4 nM; in the assay with human C2 E450A it was 20.3 nM. In addition, the binding result in the assay with human C2 K443A is given as “no binding”.

(Values after patent publication US20220332804A1 (CSL INNOVATION, published 2022).)
